Article PMC11193018 (The Journal of Biological Chemistry, 2024)

Key:
[1] = molecular target: Methanocaldococcus jannaschii GINS, wild type, non-His-tagged (Methanocaldococcus jannaschii); test: SEC
[2] = molecular target: MjGINS domain A (residues 21-115), as crystallized (Methanocaldococcus jannaschii); test: crystal structure
[3] = molecular target: MjGINS-M, dimeric mutant of MjGINS (K58A, K74A, K78A, I101A, I105A) (Methanocaldococcus jannaschii); test: SEC
crystal structure = molecular target: the molecule itself; test: crystal structure
SEC = molecular target: the molecule itself; test: SEC

Question: For “Methanocaldococcus jannaschii GINS, wild type, non-His-tagged (natural protein)”, which stoichiometry N [1] is on record?
Answer: Its stoichiometry N is 4.

Question: Which stoichiometry N [2] does the source give for “MjGINS domain A (residues 21-115), as crystallized (domain or fragment)” here?
Answer: Its stoichiometry N is 4.

Question: Which stoichiometry N [3] does the source give for “MjGINS-M, dimeric mutant of MjGINS (K58A, K74A, K78A, I101A, I105A) (natural protein)” here?
Answer: The stoichiometry N was 2.

B1: Methanocaldococcus jannaschii RecJ2, tag-free, for crystallization (enzyme)
chain: MMEKLKEIEKVTKAIKEKILNHYGYIRVITHHDTDGLSSGGILAKMLMRTNKLFHLTVVEHLSKEVIEKLAKENEVNKPLFIFADMGSGQIEEIIKHNFNAIILDHHPPVIKDSFINENIIQLNPHIFGVDGSREITASGVCYLVAREFGYYDLSVLAIVGIIGDMQYNPLLGLNKFIVNEAREYRYVKIMNDIVYNIYDVEIYKAIAYCTKPYIPDLASEGKAFKFLKDIGIDPNKKQLDDTDKKKLLSAIIFKYPKIENLLIDRYLIEHKVRDAFLLSEMLNAVGRNGLFAVGIGICLEDDECIKIGNQILWEYKKNLINELKSVKLKKLNNIYYFEGKKGMIGIIASILVDDKPVIGYHIEGDIAKFSARGNRDLVNRGLNLSVAMAVAKEFGGNGGGHDVASGAVVSKDKVQEFLKRVDEIIGEQLRR
Question: B1 was tested. Which “stoichiometry N” value (crystal structure) did it give?
Answer: Its value is 2.

B2: Methanocaldococcus jannaschii RecJ2, wild type, His-tagged (enzyme)
chain: MMEKLKEIEKVTKAIKEKILNHYGYIRVITHHDTDGLSSGGILAKMLMRTNKLFHLTVVEHLSKEVIEKLAKENEVNKPLFIFADMGSGQIEEIIKHNFNAIILDHHPPVIKDSFINENIIQLNPHIFGVDGSREITASGVCYLVAREFGYYDLSVLAIVGIIGDMQYNPLLGLNKFIVNEAREYRYVKIMNDIVYNIYDVEIYKAIAYCTKPYIPDLASEGKAFKFLKDIGIDPNKKQLDDTDKKKLLSAIIFKYPKIENLLIDRYLIEHKVRDAFLLSEMLNAVGRNGLFAVGIGICLEDDECIKIGNQILWEYKKNLINELKSVKLKKLNNIYYFEGKKGMIGIIASILVDDKPVIGYHIEGDIAKFSARGNRDLVNRGLNLSVAMAVAKEFGGNGGGHDVASGAVVSKDKVQEFLKRVDEIIGEQLRR
Question: B2 was tested. Which “stoichiometry N” value (SEC) did it give?
Answer: Its value is 2.
